The record followed here is patent publication US7521540B2, “CYR61 compositions and methods” (Munin Corporation, priority 1996, dated 2009).

One assay has as its system HUVE cells. In words: HUVE cell attachment to murine Cyr61-coated plates. Type of assay: cell-based, human. Here is the method:
Another embodiment of the invention is directed to the use of Cyr61 to mediate cellular attachment to the extracellular matrix. Induction of cellular adhesion was investigated using murine Cyr61, fibronectin, and bovine serum albumin (BSA). Immunological 96-well plates (Falcon brand) were coated with 50 μl of 0.1% BSA in PBS at 4° C. in the presence of 0-30 μg/ml concentrations of murine Cyr61 or fibronectin. After two hours exposure to the coating solution, non-diluted immune or pre-immune antisera (30 μl/well), or affinity-purified anti-Cyr61 antibodies were added. For some wells, the coating mixture was adjusted to 10 mM DTT or 100 mM HCl. After 16 hours incubation, the coating solution was removed and the well surface was blocked with 1% BSA in phosphate-buffered saline (PBS) for 1 hour at room temperature. HUVE cells were plated in Ham's complete F12K medium [GIBCO-BRL, Inc.; Ham, Proc. Natl. Acacd. Sci. (USA) 53:786 (1965)] at 5×10^3-10^4 cells/well. Cycloheximide was added to 100 μg/ml immediately before plating and monensin was added to 1 μM 14 hours before plating. After a 2-hour incubation at 37° C., the wells were washed with PBS and attached cells were fixed and stained with methylene blue. The attachment efficiency was determined by quantitative dye extraction and measurement of the extract absorbance at 650 nm. Oliver et al., J. Cell. Sci. 92:513-518 (1989).

The subject of assay [1] is Bovine aortic smooth muscle cells (BASM cells). In words: Smooth muscle cell adhesion assay. Type of assay: cell-based. As for the experimental part: Cell adhesion assays were also performed on smooth muscle cells. Bovine aortic smooth muscle cells (BASM cells) were subjected to the cell adhesion assay described above in the context of assaying fibroblasts. […] To identify particular integrin, receptors mediating the Cyr61 induction of BASM cell adhesion, antibody studies were conducted using anti-integrin antibodies recognizing specific integrins. […] Thus, integrin α6β1 mediates Cyr61-induced adhesion of smooth muscle cells. It is expected that Cyr61 polypeptides that include the heparan binding domain IV will induce adhesion of any mammalian smooth muscle cell.

The next assay has as its target T1, αVβ3 integrin (Homo sapiens, UniProt P05106+P06756).
T1 construct: αVβ3 integrin purification from HUVE cell lysates was done as described in Pytela et al; endogenous in cells; host or cells: HUVE cells
The experiment in a line: Integrin binding assay (ligand-receptor ELISA). As to conditions: 1 μg/ml Cyr61 or 0.1 μg/ml vitronectin. Here is the method:
αVβ3 integrin purification from HUVE cell lysates was done as described in Pytela et al., Meth. Enzynmol., 144:475-489 (1987). Briefly, 10^8 cells were lysed in 1 ml of PBS containing 1 mM CaCl2, 1 mM MgCl2, 0.5 mM PMSF and 100 mM octylglucoside. […] The purity of the integrin was determined by SDS-PAGE under non-reducing conditions, followed by silver staining.
The integrin binding assay was developed in accordance with the disclosures in Brooks et al., Cell 85:683-693 (1996), and Lam, S. C-T (1992). […] Bound proteins were detected by specific polyclonal antisera (anti-Cyr61 antiserum was diluted 1:500 and anti-vitronectin antiserum was diluted 1:1000 in PBS containing 1 mM CaCl2, 1 mM MgCl2, and 5 mg/ml BSA) followed by a secondary antibody-horseradish peroxidase conjugate (1:20000 in the same buffer). […] Horseradish peroxidase (HRP) was detected with an HRP immunoassay kit (Bio-Rad Laboratories). The colorimetric reaction was developed for 15-30 minutes at room temperature, stopped by the addition of H2SO4, and the absorbance at 450 nm was measured. […]

T1 sequence (P06756 31-889 limits assumed): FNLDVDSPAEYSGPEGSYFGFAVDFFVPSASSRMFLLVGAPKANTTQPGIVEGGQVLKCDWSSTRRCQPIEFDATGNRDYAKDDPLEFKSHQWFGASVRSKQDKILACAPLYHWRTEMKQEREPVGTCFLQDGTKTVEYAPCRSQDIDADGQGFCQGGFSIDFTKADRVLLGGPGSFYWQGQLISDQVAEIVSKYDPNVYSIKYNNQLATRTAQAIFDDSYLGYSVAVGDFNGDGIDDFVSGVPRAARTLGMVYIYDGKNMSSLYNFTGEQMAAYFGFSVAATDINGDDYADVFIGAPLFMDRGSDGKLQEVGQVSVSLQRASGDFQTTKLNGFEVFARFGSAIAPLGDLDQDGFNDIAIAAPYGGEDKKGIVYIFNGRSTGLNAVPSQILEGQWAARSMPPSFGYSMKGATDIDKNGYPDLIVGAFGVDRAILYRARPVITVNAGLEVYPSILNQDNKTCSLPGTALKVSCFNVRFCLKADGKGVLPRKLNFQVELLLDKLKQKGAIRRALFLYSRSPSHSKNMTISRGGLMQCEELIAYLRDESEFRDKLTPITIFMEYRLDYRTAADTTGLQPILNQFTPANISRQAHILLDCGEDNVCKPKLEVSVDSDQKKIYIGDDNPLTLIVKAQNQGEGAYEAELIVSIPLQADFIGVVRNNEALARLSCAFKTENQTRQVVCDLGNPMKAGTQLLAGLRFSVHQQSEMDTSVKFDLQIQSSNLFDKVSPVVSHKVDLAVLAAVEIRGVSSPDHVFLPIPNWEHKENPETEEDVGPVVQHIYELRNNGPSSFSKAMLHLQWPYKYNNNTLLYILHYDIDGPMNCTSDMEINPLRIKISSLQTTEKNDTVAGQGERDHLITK
T1 sequence (P06756 891-1048 partner limits assumed): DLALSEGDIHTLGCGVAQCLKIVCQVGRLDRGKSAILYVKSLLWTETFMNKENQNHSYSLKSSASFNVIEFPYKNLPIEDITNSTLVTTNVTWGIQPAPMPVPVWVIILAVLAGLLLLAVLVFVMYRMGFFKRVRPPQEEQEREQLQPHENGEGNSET
T1 sequence (P05106 27-788): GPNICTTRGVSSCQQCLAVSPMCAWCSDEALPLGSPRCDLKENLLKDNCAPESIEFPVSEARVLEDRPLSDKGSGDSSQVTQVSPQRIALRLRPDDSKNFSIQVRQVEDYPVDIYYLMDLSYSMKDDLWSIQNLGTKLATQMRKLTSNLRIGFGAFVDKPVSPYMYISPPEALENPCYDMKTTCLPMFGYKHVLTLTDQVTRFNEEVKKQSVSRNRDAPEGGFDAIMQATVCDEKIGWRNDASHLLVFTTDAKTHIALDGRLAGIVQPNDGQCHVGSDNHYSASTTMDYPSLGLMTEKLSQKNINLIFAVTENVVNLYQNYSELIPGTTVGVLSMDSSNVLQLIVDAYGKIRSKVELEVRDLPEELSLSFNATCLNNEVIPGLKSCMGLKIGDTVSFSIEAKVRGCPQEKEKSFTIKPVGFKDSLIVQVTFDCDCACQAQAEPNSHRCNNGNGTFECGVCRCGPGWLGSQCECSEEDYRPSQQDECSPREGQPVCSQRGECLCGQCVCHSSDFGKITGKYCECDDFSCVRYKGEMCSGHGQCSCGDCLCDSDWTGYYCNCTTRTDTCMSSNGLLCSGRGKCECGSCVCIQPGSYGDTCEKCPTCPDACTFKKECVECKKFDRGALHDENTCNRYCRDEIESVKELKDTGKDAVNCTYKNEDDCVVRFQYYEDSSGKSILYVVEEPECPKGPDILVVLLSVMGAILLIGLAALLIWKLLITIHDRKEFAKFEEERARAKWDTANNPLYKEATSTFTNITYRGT

B1: Cyr61: Cysteine-rich ECM signaling protein; murine sequence SEQ ID NO:2, recombinant from Baculovirus-infected Sf9 cells (protein, listed as Mus musculus)
chain: MSSSTFRTLAVAVTLLHLTRLALSTCPAACHCPLEAPKCAPGVGLVRDGCGCCKVCAKQLNEDCSKTQPCDHTKGLECNFGASSTALKGICRAQSEGRPCEYNSRIYQNGESFQPNCKHQCTCIDGAVGCIPLCPQELSLPNLGCPNPRLVKVSGQCCEEWVCDEDSIKDSLDDQDDLLGLDASEVELTRNNELIAIGKGSSLKRLPVFGTEPRVLFNPLHAHGQKCIVQTTSWSQCSKSCGTGISTRVTNDNPECRLVKETRICEVRPCGQPVYSSLKKGKKCSKTKKSPEPVRFTYAGCSSVKKYRPKYCGSCVDGRCCTPLQTRTVKMRFRCEDGEMFSKNVMMIQSCKCNYNCPHPNEASFRLYSLFNDIHKFRD
On to B1, for which the “HUVE cell attachment, A650” value in the assay with HUVE cells (coating 1 μg/ml) was 0.1 A650; with HUVE cells (coating 30 μg/ml), 0.8 A650. In addition, the “adhesion of BASM cells” value in assay [1] was “induced adhesion of BASM cells”. Also, the “binding to immobilized αVβ3 integrin” value in the assay with αVβ3 integrin is on record as “bound to the immobilized integrin”.
